How the values were obtained:
Assay in all cases: pull-down binding Z-score (relative to library population); higher = stronger binding
Conditions in all cases: RNA library: Library-2
[1] = tested on: TO-3-N3 (biotin conjugate)
In short: (§1)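 Binding is given as a Z-score against the library mean and standard deviation, calculated after removing the beads-only signal and averaging barcoded replicate probes without their highest and lowest values. Cy5- or Cy3-end-labelled RNA library (1 μg) was heat-folded in phosphate/NaCl/KCl buffer and incubated 60 min at 25 °C with streptavidin beads bearing 100 pmol of biotin-conjugated small molecule. After three washes, RNA eluted in hot SDS was hybridised to a DNA barcode microarray for 20 h at 55.5 °C.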

[2] = tested on: TO-N3-2 (biotin conjugate)
In short: as §1

TO-N3 (biotin conjugate) = tested on: TO-N3 (biotin conjugate)
In short: as §1

[3] = tested on: TO-3-N3-2 (biotin conjugate)
In short: as §1

Sequence | pull-down binding Z-score [1] | pull-down binding Z-score [2] | pull-down binding Z-score (TO-N3 (biotin conjugate)) | pull-down binding Z-score [3]
UCUCCUCAUUUACUGUGAAUGUGAGGGGA [IAV_invivo_PB2_1_Motif_31+IAV_invivo_PB2_1_Motif_31] | -0.428 | -0.905 | -0.72 | -0.219
UCUCGUUCACUGGGGA [IAV_invivo_PA_3_Motif_5+IAV_invivo_PA_3_Motif_5] | 0.366 | -0.216 | 0.198 | 0.0349
UCUCUAAUGAGA | -0.823 | -1.53 | -1.38 | -0.652
UCUCUAUGACAAACUUGUUUCAAGCUUUUUGGAAAUGAAGAGUGAAAAGCAAGUUGAACAAAAGAUCGCUGAGA [SHAPE_invitro_SARS-CoV-2_Motif_69] | -0.0465 | 0.388 | -0.0892 | -0.507
UCUCUCUCAUUUUGUUAACUUAGACAACCUGAGAGCUAAUAACACUAAAGGUUCAUUGCCUAUUAAUGUUAUAGUUUUUGAUGGUAAAUCAAAAUGUGAAGA [DMSMaPseq_invitro_SARS-CoV-2_Motif_146] | -0.765 | -0.699 | -0.723 | -0.388
UCUGAAGAAGUAGUGGAAAAUCCUACCAUACAGA [DMSMaPseq_invitro_SARS-CoV-2_Motif_122] | -0.124 | 0.514 | 0.657 | -0.226
UCUGACAGUCCAUGUGAGUCUCAUGGAAAACAAGUAGUGUCAGA [SHAPE_invivo_SARS-CoV-2_Motif_364] | -0.582 | -0.73 | -0.868 | -0.0689
UCUGCACUGUUAGCGGGUACAAUCACUUCUGGUUGGACCUUUGGUGCAGG | -0.66 | -1.07 | -0.815 | -0.38
UCUGCCUAUACAGUUGAACUCGGUACAGAAGUAAAUGAGUUCGCCUGUGUUGUGGCAGA [SHAPE_invivo_SARS-CoV-2_Motif_57] | -0.71 | 1.36 | -0.415 | -0.334
UCUGCUCGCAUAGUGUAUACAGCUUGCUCUCAUGCCGCUGUUGAUGCACUAUGUGAGAAGGCAUUAAAAUAUUUGCCUAUAGA | -0.598 | -0.0527 | -0.615 | -0.447
UCUGGAGUAAAAGACUGUGUUGUAUUACACAGUUACUUCACUUCAGA | -0.0665 | -0.98 | -0.481 | -0.0465
UCUGUACCGUCUGCGGUAUGUGGA [DMSMaPseq_invitro_SARS-CoV-2_Motif_240] | -0.562 | 0.111 | -0.694 | -0.475
UCUGUUUGGAACUUUAAUUUUAGCCAUGGCAGA | -0.689 | 0.0796 | -0.72 | -0.0381
UCUUAAGAGAGGUGAUAAAAGUGUAUAUUACACUAGUAAUCCUACCACAUUCCACCUAGAUGGUGAAGUUAUCACCUUUGACAAUCUUAAGA | 0.836 | -0.559 | 0.528 | -0.0579
UCUUCAGGUUGGACAGCUGGUGCUGCAGCUUAUUAUGUGGGUUAUCUUCAACCUAGGA [DMSMaPseq_invitro_SARS-CoV-2_Multi_66_ComplexLevel_1] | -0.145 | 0.0317 | 0.0485 | -0.178
UCUUGCCGAAUACCAUAAUGAAUCUGGCUUGA [SHAPE_invivo_SARS-CoV-2_Motif_27] | -0.617 | 0.0939 | -0.631 | -0.354

Reference: the supplement of paper PMC11865577
